{
  "source": "paper doi:10.1101/2024.02.22.581535",
  "about": "(2024)",
  "experiment_in_all_cases": "SPR",
  "key": {"FIKK13_4_S7A": {"biological_target": "FIKK13_4_S7A"}, "FIKK13_6": {"biological_target": "FIKK13_6"}, "FIKK13_4_Y10A": {"biological_target": "FIKK13_4_Y10A"}, "FIKK13_1": {"biological_target": "FIKK13_1"}, "FIKK13_4_S7A_Y10A": {"biological_target": "FIKK13_4_S7A_Y10A"}},
  "data": [
    {"binder": "Bio-His-FIKK13 (enzyme) MKKKENTQKLLNFVYYKIYLTFIVGLLYIFLLNILINHGGSKNDVRFTNIRCVRIFSENIKNINEISKKIYLYNIKNEKDDIICRDSLDNINEINNKINYTSVKGEDIIILKEGKYKNGCSDINFLDRKDVNKNDDQSFRNYHKTNNNKDENVNMKSYVYNWELGQKSLIKMLDYADNFYFNGVKYSDWKLTSMRRFNLNNNVLKDHKTYKSIINSKKGNDMKKVKLFIKKIPIDIWVEQFNLMKKYEGEYLIDKENYVMEAVSLAFLNEYYPGITPKFYKILYESDKNNMNEKNCKKYKFQDLNELNDILTKKLENNINGNIVLISEFFGENVFDYIKRKKNTLFVVSDISNEDKKKILYNSLNLLMRLHNAGLTHLDLSPDNMLISPKNYEMRLCDLSQSTPIYTNKLRHKEKLNSIKPFESFEPCIGKIEYIPPECWKIVWKYKMNNIKNPIEYLKNISNQEERKKYYYDVSCADKYMLGIFFIWMWNNGFIWKCSDPIQDKIFEIFMKSNMDLNKFIMTKSWPHELNNLINKLLHMEHRKTVKLSDLSRHPWWSSKN", "values": [
      {"measurement": "Kd", "setting": "FIKK13_4_S7A", "result": 3.4, "unit": "µM"},
      {"measurement": "Kd", "setting": "FIKK13_6", "result": "> 10", "unit": "µM"},
      {"measurement": "Kd", "setting": "FIKK13_4_Y10A", "result": "> 10", "unit": "µM"},
      {"measurement": "Kd", "setting": "FIKK13_1", "result": "> 10", "unit": "µM"},
      {"measurement": "Kd", "setting": "FIKK13_4_S7A_Y10A", "result": "> 10", "unit": "µM"}
    ]}
  ]
}
